# Source: publication PMC9040152
# Assays:
# [1] = target: E5-tagged FcγRIIIa V158, produced in CHO cells (human); test: SPR
# [2] = target: E5-tagged Fcγ receptor IIIa, V158 variant (human); test: SPR
# Sequence of E5-tagged Fcγ receptor IIIa, V158 variant (human) (P08637 17-208, change not shown): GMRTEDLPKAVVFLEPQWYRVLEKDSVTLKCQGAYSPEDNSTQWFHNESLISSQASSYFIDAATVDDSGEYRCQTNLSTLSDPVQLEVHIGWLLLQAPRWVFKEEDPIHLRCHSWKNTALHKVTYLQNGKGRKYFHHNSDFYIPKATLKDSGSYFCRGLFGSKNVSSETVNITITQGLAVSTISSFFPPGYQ
# Sequence of E5-tagged FcγRIIIa V158, produced in CHO cells (human) (P08637 17-208): as the sequence (P08637 17-208, change not shown) above
Kd [1] [nM],"fold increase in affinity upon digalactosylation, relative to TZM [2] [fold]",Substance
32,,"Trastuzumab co-expressed with β4GT1 and RMD, in vitro α2,6-sialylated (antibody)"
,2,"Trastuzumab co-expressed with β1,4-galactosyltransferase 1 (TZM GT) (antibody)"
